# Experimental data as given in PMC8764033, “Single-molecule analysis of specificity and multivalency in binding of short linear substrate motifs to the APC/C” (Nature Communications, 2022).
# “And” between values parts separate entries of the source, which are not always exact repeats. Identical values can stand only once. Like-named read-outs stand apart in the source and are kept apart here.
# T1: APC/C^Cdh1 (Saccharomyces cerevisiae, UniProt P53068+P53197)
# T1 construct: APC/C was purified from yeast cells; made in house; host or cells: APC/C from S. cerevisiae W303 strain NHY13 (Cdc16-TAP, Apc1-GFP, cdh1 deleted); Cdh1 from Sf9 (baculovirus)
# T1 sequence (P53068 whole entry, looked up): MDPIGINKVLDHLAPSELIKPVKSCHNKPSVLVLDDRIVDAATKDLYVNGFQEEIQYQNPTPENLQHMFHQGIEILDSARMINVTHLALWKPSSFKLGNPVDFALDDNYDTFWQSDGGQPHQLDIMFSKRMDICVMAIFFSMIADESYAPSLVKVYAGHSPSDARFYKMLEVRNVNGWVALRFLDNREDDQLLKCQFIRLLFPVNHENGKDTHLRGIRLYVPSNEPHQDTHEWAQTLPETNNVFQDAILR
# T1 sequence (P53197 whole entry, looked up): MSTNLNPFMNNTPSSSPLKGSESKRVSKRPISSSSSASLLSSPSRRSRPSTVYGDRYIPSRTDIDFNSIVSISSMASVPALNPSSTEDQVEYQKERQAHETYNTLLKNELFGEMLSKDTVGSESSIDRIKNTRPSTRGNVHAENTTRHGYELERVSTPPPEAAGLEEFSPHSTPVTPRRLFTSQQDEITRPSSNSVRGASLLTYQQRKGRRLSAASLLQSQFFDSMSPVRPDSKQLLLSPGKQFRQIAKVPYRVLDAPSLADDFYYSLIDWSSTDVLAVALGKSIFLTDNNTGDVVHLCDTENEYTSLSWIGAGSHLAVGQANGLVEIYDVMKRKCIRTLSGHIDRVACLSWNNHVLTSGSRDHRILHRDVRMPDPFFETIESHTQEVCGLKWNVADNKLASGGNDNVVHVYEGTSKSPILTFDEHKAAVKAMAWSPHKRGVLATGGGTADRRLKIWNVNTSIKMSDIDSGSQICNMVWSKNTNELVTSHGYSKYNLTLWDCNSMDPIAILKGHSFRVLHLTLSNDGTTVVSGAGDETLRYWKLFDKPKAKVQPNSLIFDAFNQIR
# Experiments:
# APC/C = settings: APC/C^Cdc20 vs APC/C^Cdh1; cited from earlier work
# From the text: We find that the yeast securin ...
# APC/C^Cdc20 = target: T2, APC/C^Cdc20 (Saccharomyces cerevisiae, UniProt P26309+P53068); assay: SMOR assay, yeast APC/C^Cdc20; type: binding; settings: for mean dwell time: representative of two independent experiments, ± SE, ligand ≤1 nM, buffer C + BSA
# T2 construct: APC/C was purified from yeast cells; made in house; host or cells: APC/C from S. cerevisiae W303 strain NHY13 (Cdc16-TAP, Apc1-GFP, cdh1 deleted); Cdc20 from Sf9 (baculovirus)
# Experimental: (§1) Yeast strains were derivatives of W303 and are listed in Supplementary Table 2. For APC/C purification, we used a strain carrying Cdc16-TAP and lacking Cdh1 (DOM1126); in most experiments, the strain also carried Apc1-GFP (NHY13). Yeast were grown in YPD media to OD600 = 0.8, collected and flash-frozen. Cells were lysed by bead beating in lysis buffer A (50 mM HEPES pH 7.5, 150 mM KCl, 10% glycerol, 0.2% Triton X-100, 63 µM B-glycerophosphate, 48 µM sodium fluoride, 1 µg ml^−1 pepstatin A, 1 µg ml^−1 leupeptin, 1 µg ml^−1 aprotinin, 1 mM PMSF, 1 mM DTT, 0.5 mM EDTA) and APC/C was purified using magnetic IgG beads. The beads were washed using wash buffer A (20 mM HEPES pH 7.5, 150 mM KCl, 10% Glycerol, 0.05% Triton X-100). After incubation with purified Cdh1 or Cdc20, the APC/C was cleaved off the beads with TEV protease in wash buffer A with 0.05% Tween-20 (for single-molecule studies) or 0.05% Triton X-100 (for ensemble assays such as ubiquitylation) and used immediately.
# (§2) For all SMOR experiments, 24 × 50 mm high precision glass coverslips (Bioscience Tools) and drilled microscope slides were passivated with a combination of PEG and PEG-biotin (coverslips) or PEG only (slides) following a previously published protocol for SiMPull[31]. Reaction chambers (~20 µl) were created using double-sided tape and epoxy. Protein was immobilized on the surface with 0.2 mg ml^−1 NeutrAvidin in buffer C (20 mM HEPES pH 7.5, 150 mM KCl, 10% glycerol, 0.05% Tween-20, 1 mM DTT). Excess NeutrAvidin was washed away and incubated with either biotin-conjugated mouse monoclonal anti-Strep-Tag II antibody (LSBio, Cat. No. LS-C203632-100) or biotin-conjugated rabbit polyclonal anti-GFP antibody (Rockland, Cat. No. 600-406-215) diluted in buffer C + BSA (0.1 mg ml^−1; Molecular Biology Grade Bovine Serum Albumin). Activator WD40 and activated APC/C (typically 50 µl containing about 65 ng APC/C, of which only a small fraction is immobilized on the glass) were immobilized using anti-Strep-Tag II, while APC/C alone was immobilized with anti-GFP. SMOR results were similar when performed in the buffer (wash buffer B) used in polarization anisotropy.
# (§3) To capture dynamic protein–protein interactions, dye-labeled substrate diluted in buffer C + BSA was added to the chamber containing immobilized proteins. Interactions were imaged by TIRF microscopy as described below. For optimal signal-to-noise ratio, peptide concentration was no greater than 1 nM. Protein substrates included Hsl1 aa 667–872 and a C-terminal HaloTag followed by a TAP tag, and were produced by translation in rabbit reticulocyte lysates using TnT Quick Coupled Transcription/Translation System (Promega) (see Supplementary Table 5 for plasmids). Protein was purified with magnetic IgG beads and labeled on the bead with JF549 or JF646 dye so that unbound dye could be washed away. Purified dye-labeled protein was then cleaved from the beads using TEV protease. Before adding substrate to the reaction chamber, oxygen scavenging reagents were added (10 nM protocatechuate-3,4-dioxygenase, 2.5 mM protocatechuic acid, and 1 mM Trolox)[41]. A detailed description of the SMOR analysis pipeline is found in Supplementary Note 1.
# Microscopy was performed with a Nikon Eclipse TE2000-E with Perfect Focus with a 100 × 1.49na oil, Apo TIRF DIC N2, 0.13-0.2, WD0.12 objective. Movies were recorded using the Andor iXon DU-897E-CSO. For visualizing GFP-tagged protein, a 491 nm laser was used with an ET525/50 (Chroma) filter for emission. […]
# APC/C^Cdh1 = target: T1, APC/C^Cdh1; type: binding; settings: for mean dwell time: representative of two independent experiments, ± SE, ligand ≤1 nM, buffer C + BSA
# Experimental: as §1, §2, §3
# Microscopy was performed with a Nikon Eclipse TE2000-E with Perfect Focus with a 100 × 1.49na oil, Apo TIRF DIC N2, 0.13-0.2, WD0.12 objective. Movies were recorded using the Andor iXon DU-897E-CSO. For visualizing GFP-tagged protein, a 491 nm laser was used with an ET525/50 (Chroma) filter for emission. For visualizing JF549-labeled substrate, a 561 nm laser was used with an ET595/50 (Chroma) filter for emission. For visualizing all Cy5-labeled peptides and JF646-labeled substrates, a 640 nm laser was used with an ET685/70 filter (Chroma) for emission. Initially, for each substrate tested, we acquired movies at multiple intervals to deduce the optimal interval to decrease bleaching. µManager version 2.0 was used to control the microscope and record time-lapse movies.
# [1] = Supplementary Table 1, replicate 1 (movie listed first)
# [2] = Supplementary Table 1, replicate 2 (movie listed second)
molecule,measurement,setting,value
"Hsl1^Halo KEN & D: Hsl1 fragment (amino acids 667–872) with C-terminal HaloTag, JF549-labeled (protein, JF549 or JF646 dye covalently bound to the HaloTag; left off: HaloTag, C-terminal, kept | TAP, C-terminal, cleaved, Hsl1 fragment (amino acids 667–872) with C-terminal HaloTag, JF549-labeled) QNSASKRSLYSLQSISKRSLNLNDLLVFDDPLPSKKPASENVNKSEPHSLESDSDFEILCDQILFGNALDRILEEEEDNEKERDTQRQRQNDTKSSADTFTISGVSTNKENEGPEYPTKIEKNQFNMSYKPSENMSGLSSFPIFEKENTLSSSYLEEQKPKRAALSDITNSFNKMNKQEGMRIEKKIQREQLQKKNDRPSPLKPIQ",processivity of ubiquitylation (in words),APC/C,more processively modified by APC/C^Cdh1
same,fold lower affinity/dwell time with APC/C^Cdc20 than with APC/C^Cdh1 (preference for APC/C^Cdh1),APC/C^Cdc20,600 fold
same,Dwell Time,APC/C^Cdc20; [1],0.518 ± 0.032 s
same,Dwell Time,APC/C^Cdc20; [2],0.396 ± 0.027 s
same,mean dwell time,APC/C^Cdc20,0.518 ± 0.03 s and 0.518 s
same,mean dwell time,APC/C^Cdc20; listed as Hsl1 fragment,0.518 ± 0.03 s
same,Dwell Time,APC/C^Cdh1,300 s
same,"fold increase in affinity/dwell time, APC/C^Cdh1 vs Cdh1 alone",APC/C^Cdh1,6 fold
same,Dwell Time,APC/C^Cdh1; [1],321.161 ± 14.186 s
same,Dwell Time,APC/C^Cdh1; [2],268.262 ± 10.979 s
same,mean dwell time,APC/C^Cdh1,321 ± 14 s and 321 s
same,mean dwell time,APC/C^Cdh1; listed as Hsl1,over 300 s
same,mean dwell time,APC/C^Cdh1; listed as Hsl1 fragment,321 ± 14 s
